Test results published in patent publication US20080227700A1, “Compositions and Methods for Treatment of Protein Misfolding and Protein Aggregation Diseases” (priority 2004, published 2008).

How the values were obtained:
γD crystallin = molecular target: T1, γD crystallin (Homo sapiens, UniProt P07320); assay: γD crystallin ThioflavinT fluorescence (fibrillization of γD crystallin); format: biochemical; conditions: 1:1 γD crystallin:peptide
T1 sequence (P07320 1-174): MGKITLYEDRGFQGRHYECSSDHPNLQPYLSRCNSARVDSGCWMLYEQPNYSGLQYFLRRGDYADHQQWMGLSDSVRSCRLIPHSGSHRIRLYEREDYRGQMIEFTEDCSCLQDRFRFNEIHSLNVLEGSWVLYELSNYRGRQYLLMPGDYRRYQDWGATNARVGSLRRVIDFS
Method: γD crystallin Thioflaviin T fluorescence. γD crystallin fibrils were formed in a similar way to that of γ crystalline. Meehan et al., J Biol Chem 279: 3413-3419, 2004. Peptides were dissolved to […] IN tfe AND DILUTED to 0.91 mM stock solutions in 10% TFE, pH 2.0.
3.5 mg of ThioflavinT was dissolved in 100 μL of 50 mM Glycine pH 8.5. A stock solution of 1 mg/ml (0.22 mM) Aβ was prepared. 20 μl Aβ, 5 μl chaperone, 2 μl ThioflavinT was mixed with 73 μL 10% TFE, pH 2.0. Fluorescence was read using a Beckman Coultier DTX 880 multimode detector. Samples were heated at 50° C. for 72 hours and fluorescence was read again.
The fibrillization of γD crystallin was measured as fluorescence of the fluorescent dye ThioflavinT from solutions containing 1:1 monomeric molar ratio of γD crystallin:peptide. In the absence of fibrils ThioflavinT had little or no fluorescence. The fluorescence of the ThioflavinT bound to γD crystallin fibrils in the absence of any other molecule after 72 hrs was set to 100%. […] Fibril formation=ΔfluorescenceγD crystallin (with chaperone)*100/ΔfluorescenceγD crystallin (without chaperone).

Aβ = Aβ (Homo sapiens, UniProt P05067); assay: Aβ ThioflavinT fluorescence (fibrillization of Aβ); format: biochemical; conditions: ThioflavinT; 50° C. for 72 hours; 1:10 Aβ:peptide; no chaperone 1,324,974,048
Method: Aβ Thioflaviin T fluorescence. Aβ fibrils were grown in the presence and absence of αB crystallin and peptides in conditions similar to that previously described for the presence of αB crystallin. Bakthisaran et al., Biochem J, 2005. Peptides were dissolved to 9.1 mM in trifluorethanol (TFE) and diluted to 0.91 mM stock solutions in 50 mM PBS, 100 mM NaCl, pH 7.4. 3.5 mg of ThioflavinT was dissolved in 100 μl of 50 mM Glycine pH 8.5. A stock solution of 1 mg/ml (0.22 mM) Aβ was prepared. 20 μl Aβ, 50 μl chaperone, 2 μl ThioflavinT was mixed with 28 μl 50 mM PBS, 100 mM NaCl, pH 7.4. Fluorescence was read using a Beckman Coultier DTX 880 multimode detector. Samples were heated at 50° C. for 72 hours and fluorescence was read again.
The fibrillization of Aβ was measured as fluorescence of the fluorescent dye ThioflavinT from solutions containing 1:10 monomeric molar ratio of Aβ:peptide. In the absence of Aβfibrils, ThioflavinT had little or no fluorescence. The fluorescence of the ThioflavinT bound to Aβ fibrils in the absence of any other molecule after 72 hrs was set to 100%. […] Fibril formation=ΔfluorescenceAβ (with chaperone)*100/ΔfluorescenceAβ (without chaperone).

## αB crystallin: wild type recombinant human αB crystallin, a small heat shock protein and molecular chaperone
γD crystallin; ThioflavinT fluorescence after 72 hrs, comparison among αB crystallin and five peptides
  effect on the fibrillization of γD crystallin: weakest effect
γD crystallin; ThioflavinT, 50° C. for 72 hours, no chaperone 888,803,840
  Δfluorescence (γD crystallin): 1,079,141,056
Aβ
  Δfluorescence (Aβ): 318,471,040
